Legend:
[1] = substrate: CC1=CC[C@@H]2C[C@H]1C2(C)C; test: cells, lysate or membranes; conditions: Sf9 microsomes + MPB CPR, 1 mM NADPH, 50 mM potassium phosphate pH 7.4, 30 °C, 1 h
[2] = substrate: CC1=CC[C@H]2C[C@@H]1C2(C)C; test: cells, lysate or membranes; conditions: Sf9 microsomes + MPB CPR, 1 mM NADPH, 50 mM potassium phosphate pH 7.4, 30 °C, 1 h

B1: CYP6DE1 (Dendroctonus ponderosae) (protein)
chain: MALIIAVGLLLSIILLYCVYSKWKFQHWTRKGVPQLNPRLFFGDTLPLVRGQALKDFHLGLYQKFKSTGAKCVGIYNAHMPELVPIDIILLKDIMVKDYSYFSSHGVFYHEKNVLTSHLFNIEGQSWKERRTKLTPVFTSAKMKQMFDTVASKSPGLVRLVGLSADANKPADIKEILSRFTTDVISGAAFGLECKSLYEPDNMFRAIGKEAFEPNALKLYIEYLFPRQLLGSIGYQTFSSRIVSYFSKVVNETIQYREKNNVQRNDFMQLMLQLKQHGSLVKEDGSVDVKKTETQITDREILSESFLMFLAGHETSSSTSTFALFALSQNQDIQEKVRNEINEVLERHNGKLGYDALMEMEYLDKVIRETLRKYPTVPVIPRRCTKDYQIKNTNTVIDKGTRLYIPVIGVHLDPEYYPDPERFDPERFSPENKAKRPDIAWMPFGEGPRQCLGMRFGLLQSKVALASLLPTFRFTINKAMKPPYIADAGTLVYMFKQDVLLDATRIN
B1 showed a Km [1] of 292 ± 1 µM, a Vmax [1] of 0.42 µM/min and a kcat [1] of 0.17 s⁻¹. For the same protein, the kcat/Km [1] was 576 M⁻¹ s⁻¹, the Km [2] was 160 ± 1 µM and the Vmax [2] was 0.96 µM/min. The kcat [2] was 0.37 s⁻¹ and the kcat/Km [2] was 2320 M⁻¹ s⁻¹.
